# According to paper PMC5321513 (Structure (London, England : 1993), 2017):
# Like-named read-outs stand apart in the source and are kept apart here. [ ]: non-standard residue; d: D form. pS = N[C@@H](COP(=O)(O)O)C(=O)O
# T1: full-length human 14-3-3ζ (human, UniProt P63104 1-245)
# T1 sequence (looked up): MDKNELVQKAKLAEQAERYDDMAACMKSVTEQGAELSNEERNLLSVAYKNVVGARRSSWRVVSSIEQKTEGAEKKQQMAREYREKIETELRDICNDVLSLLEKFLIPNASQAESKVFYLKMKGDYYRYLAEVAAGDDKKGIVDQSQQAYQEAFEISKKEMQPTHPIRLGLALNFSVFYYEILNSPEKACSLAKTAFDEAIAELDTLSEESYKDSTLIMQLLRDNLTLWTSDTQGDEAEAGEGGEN
# T2: 14-3-3τ (1-230) (human, UniProt P27348 1-230)
# T2 sequence: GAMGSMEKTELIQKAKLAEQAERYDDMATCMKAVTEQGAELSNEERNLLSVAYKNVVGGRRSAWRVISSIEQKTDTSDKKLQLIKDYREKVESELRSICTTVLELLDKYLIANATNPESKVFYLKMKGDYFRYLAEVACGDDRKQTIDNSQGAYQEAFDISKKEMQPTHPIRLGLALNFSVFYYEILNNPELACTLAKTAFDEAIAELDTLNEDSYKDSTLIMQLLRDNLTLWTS
# T3: 14-3-3ε (1-232) (human, UniProt P62258 1-232)
# T3 sequence: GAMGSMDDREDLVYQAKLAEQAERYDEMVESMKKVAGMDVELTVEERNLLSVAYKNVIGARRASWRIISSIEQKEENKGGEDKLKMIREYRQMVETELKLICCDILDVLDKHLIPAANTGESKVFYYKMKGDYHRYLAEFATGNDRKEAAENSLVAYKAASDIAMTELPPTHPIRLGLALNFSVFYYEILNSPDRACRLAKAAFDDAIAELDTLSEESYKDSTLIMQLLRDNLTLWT
# T4: 14-3-3β (1-232) (human, UniProt P31946 1-232)
# T4 sequence: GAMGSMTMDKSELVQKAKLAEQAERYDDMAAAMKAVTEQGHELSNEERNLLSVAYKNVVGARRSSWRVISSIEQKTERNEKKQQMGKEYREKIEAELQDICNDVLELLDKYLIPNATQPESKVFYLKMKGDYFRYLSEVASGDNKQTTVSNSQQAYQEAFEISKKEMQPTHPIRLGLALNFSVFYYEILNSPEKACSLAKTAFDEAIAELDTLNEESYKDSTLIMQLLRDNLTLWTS
# T5: 14-3-3η (1-235) (human, UniProt Q04917 1-235)
# T5 sequence: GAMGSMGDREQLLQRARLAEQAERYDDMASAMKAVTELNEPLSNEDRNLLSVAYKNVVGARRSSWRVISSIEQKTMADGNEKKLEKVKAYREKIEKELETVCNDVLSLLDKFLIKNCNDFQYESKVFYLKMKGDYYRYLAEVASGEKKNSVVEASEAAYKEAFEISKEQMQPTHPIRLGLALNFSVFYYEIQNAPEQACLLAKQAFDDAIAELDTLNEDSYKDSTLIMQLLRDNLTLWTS
# T6: full-length human 14-3-3γ (human, UniProt P61981 1-247)
# T6 sequence (looked up): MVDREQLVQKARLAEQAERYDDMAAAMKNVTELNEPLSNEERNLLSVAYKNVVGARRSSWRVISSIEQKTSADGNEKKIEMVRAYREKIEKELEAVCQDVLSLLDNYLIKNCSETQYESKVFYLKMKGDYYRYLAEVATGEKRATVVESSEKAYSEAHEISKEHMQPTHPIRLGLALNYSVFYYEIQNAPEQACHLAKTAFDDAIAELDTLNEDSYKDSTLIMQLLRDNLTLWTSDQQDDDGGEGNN
# B1: 14-3-3σ WT (1-231) (domain or fragment, human)
# chain: GAMGSMERASLIQKAKLAEQAERYEDMAAFMKGAVEKGEELSCEERNLLSVAYKNVVGGQRAAWRVLSSIEQKSNEEGSEEKGPEVREYREKVETELQGVCDTVLGLLDSHLIKEAGDAESRVFYLKMKGDYYRYLAEVATGDDKKRIIDSARSAYQEAMDISKKEMPPTNPIRLGLALNFSVFHYEIANSPEEAISLAKTTFDEAMADLHTLSEDSYKDSTLIMQLLRDNLTLWT
# B2: 14-3-3σ Clu1 (1-231) (domain or fragment, human)
# chain: GPHMERASLIQKAKLAEQAERYEDMAAFMKGAVEKGEELSCEERNLLSVAYKNVVGGQRAAWRVLSSIEQKSNEEGSEEKGPEVREYREKVETELQGVCDTVLGLLDSHLIKEAGDAESRVFYLKMKGDYYRYLAEVATGDDKKRIIDSARSAYQEAMDISAAAMPPTNPIRLGLALNFSVFHYEIANSPEEAISLAKTTFDEAMADLHTLSEDSYKDSTLIMQLLRDNLTLWT
# How the values were obtained:
# crystal structure = target: the molecule itself; test: crystal structure
# 14-3-3σ Clu1 (1-231) [1] = target: B2; test: crystal structure
# [2] = target: T1, full-length human 14-3-3ζ; test: SEC
# 14-3-3τ (1-230) = target: T2, 14-3-3τ (1-230); test: SEC
# 14-3-3ε (1-232) = target: T3, 14-3-3ε (1-232); test: SEC
# 14-3-3β (1-232) = target: T4, 14-3-3β (1-232); test: SEC
# 14-3-3η (1-235) = target: T5, 14-3-3η (1-235); test: SEC
# [3] = target: T6, full-length human 14-3-3γ; test: SEC
# 14-3-3σ WT (1-231) [4] = target: B1; test: SEC
# [5] = target: T6, full-length human 14-3-3γ; test: ITC
# 14-3-3σ WT (1-231) [6] = target: B1; test: ITC
# 14-3-3σ WT (1-231) [7] = target: B1; test: other fluorescence titration
# 14-3-3σ Clu1 (1-231) [8] = target: B2; test: crystal structure; remark: listed apart in the source
Binder,binding result (crystal structure),binding result [2],binding result (14-3-3τ (1-230)),binding result (14-3-3ε (1-232)),binding result (14-3-3β (1-232)),binding result (14-3-3η (1-235)),binding result [3],other results
B1,binds,–,–,–,–,–,–,–
"pHSPB6 (7-153) (domain or fragment, human, UniProt O14558 7-153, looked up, phosphoserine at 16) VQPSWLRRASAPLPGLSAPGRLFDQRFGEGLLEAELAALCPTTLAPYYLRAPSVALPVAQVPTDPGHFSVLLDVKHFSPEEIAVKVVGEHVEVHARHEERPDEHGFVAREFHRRYRLPPGVDPAAVTSALSPEGVLSIQAAPASAQA",–,binds,binds,binds,binds,binds,binds,binding result (14-3-3σ Clu1 (1-231) [1]): binds; binding result (14-3-3σ WT (1-231) [4]): binds
"full-length pHSPB6 (1-160) (natural protein, human, UniProt O14558 1-160, looked up, phosphoserine at 16) MEIPVPVQPSWLRRASAPLPGLSAPGRLFDQRFGEGLLEAELAALCPTTLAPYYLRAPSVALPVAQVPTDPGHFSVLLDVKHFSPEEIAVKVVGEHVEVHARHEERPDEHGFVAREFHRRYRLPPGVDPAAVTSALSPEGVLSIQAAPASAQAPPPAAAK",–,binds,binds,binds,binds,binds,binds,binding result (14-3-3σ Clu1 (1-231) [1]): binds
"14-3-3σ Clu3 (1-231) (domain or fragment, human) GPHMERASLIQKAKLAEQAERYEDMAAFMKGAVEKGEELSCEERNLLSVAYKNVVGGQRAAWRVLSSIEQKSNEEGSAAAGPEVREYREKVETELQGVCDTVLGLLDSHLIKEAGDAESRVFYLKMKGDYYRYLAEVATGDDKKRIIDSARSAYQEAMDISKKEMPPTNPIRLGLALNFSVFHYEIANSPEEAISLAKTTFDEAMADLHTLSEDSYKDSTLIMQLLRDNLTLWT",binds,–,–,–,–,–,–,–
B2,binds,–,–,–,–,–,–,–
"H-WLRRA[pS]APLPGLS-OH (peptide, UniProt O14558 11-23, looked up, SMILES CC(C)C[C@H](NC(=O)CNC(=O)[C@@H]1CCCN1C(=O)[C@H](CC(C)C)NC(=O)[C@@H]1CCCN1C(=O)[C@H](C)NC(=O)[C@H](COP(=O)(O)O)NC(=O)[C@H](C)NC(=O)[C@H](CCCNC(=N)N)NC(=O)[C@H](CCCNC(=N)N)NC(=O)[C@H](CC(C)C)NC(=O)[C@@H](N)Cc1c[nH]c2ccccc12)C(=O)N[C@@H](CO)C(=O)O) [pHSPB6(11-23) phosphopeptide]",–,–,–,–,–,–,–,Kd [5]: 2.3 ± 0.3 µM; stoichiometry N [5]: 1; Kd (14-3-3σ WT (1-231) [6]): 6.3 ± 0.5 µM; stoichiometry N (14-3-3σ WT (1-231) [6]): 1; IC50 (14-3-3σ WT (1-231) [7]): 28.9 ± 0.9 µM; Kd (14-3-3σ WT (1-231) [7]): 5.2 ± 0.5 µM
"HSPB6 ACD (residues 72 to 149) (domain or fragment, human, UniProt O14558 72-149, looked up) GHFSVLLDVKHFSPEEIAVKVVGEHVEVHARHEERPDEHGFVAREFHRRYRLPPGVDPAAVTSALSPEGVLSIQAAPA",binds,–,–,–,–,–,–,–
"pHSPB6 (1-149) (domain or fragment, human, UniProt O14558 1-149, looked up, phosphoserine at 16) MEIPVPVQPSWLRRASAPLPGLSAPGRLFDQRFGEGLLEAELAALCPTTLAPYYLRAPSVALPVAQVPTDPGHFSVLLDVKHFSPEEIAVKVVGEHVEVHARHEERPDEHGFVAREFHRRYRLPPGVDPAAVTSALSPEGVLSIQAAPA",–,binds,binds,binds,binds,binds,binds,binding result (14-3-3σ Clu1 (1-231) [8]): binds; binding result (14-3-3σ WT (1-231) [4]): binds
